From patent publication US20150274845A1 (Hoffmann-La Roche, published 2015)

Columns and labels:
[1] = target: human Melanoma-associated Chondroitin Sulfate Proteoglycan (MCSP) (human, UniProt Q6UVK1 30-2322); assay: cell-based or functional assay
[2] = target: human CD3 T-Cell Co-Receptor (CD3) (human, UniProt P07766 23-207); assay: cell-based or functional assay
Sequence of human CD3 T-Cell Co-Receptor (CD3) (P07766 23-207): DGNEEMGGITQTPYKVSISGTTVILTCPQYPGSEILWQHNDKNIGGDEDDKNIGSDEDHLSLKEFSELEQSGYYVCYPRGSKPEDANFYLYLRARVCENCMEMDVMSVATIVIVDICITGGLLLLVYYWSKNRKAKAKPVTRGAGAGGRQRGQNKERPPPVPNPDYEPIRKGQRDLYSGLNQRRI

Sequence of human Melanoma-associated Chondroitin Sulfate Proteoglycan (MCSP) (Q6UVK1 30-2322): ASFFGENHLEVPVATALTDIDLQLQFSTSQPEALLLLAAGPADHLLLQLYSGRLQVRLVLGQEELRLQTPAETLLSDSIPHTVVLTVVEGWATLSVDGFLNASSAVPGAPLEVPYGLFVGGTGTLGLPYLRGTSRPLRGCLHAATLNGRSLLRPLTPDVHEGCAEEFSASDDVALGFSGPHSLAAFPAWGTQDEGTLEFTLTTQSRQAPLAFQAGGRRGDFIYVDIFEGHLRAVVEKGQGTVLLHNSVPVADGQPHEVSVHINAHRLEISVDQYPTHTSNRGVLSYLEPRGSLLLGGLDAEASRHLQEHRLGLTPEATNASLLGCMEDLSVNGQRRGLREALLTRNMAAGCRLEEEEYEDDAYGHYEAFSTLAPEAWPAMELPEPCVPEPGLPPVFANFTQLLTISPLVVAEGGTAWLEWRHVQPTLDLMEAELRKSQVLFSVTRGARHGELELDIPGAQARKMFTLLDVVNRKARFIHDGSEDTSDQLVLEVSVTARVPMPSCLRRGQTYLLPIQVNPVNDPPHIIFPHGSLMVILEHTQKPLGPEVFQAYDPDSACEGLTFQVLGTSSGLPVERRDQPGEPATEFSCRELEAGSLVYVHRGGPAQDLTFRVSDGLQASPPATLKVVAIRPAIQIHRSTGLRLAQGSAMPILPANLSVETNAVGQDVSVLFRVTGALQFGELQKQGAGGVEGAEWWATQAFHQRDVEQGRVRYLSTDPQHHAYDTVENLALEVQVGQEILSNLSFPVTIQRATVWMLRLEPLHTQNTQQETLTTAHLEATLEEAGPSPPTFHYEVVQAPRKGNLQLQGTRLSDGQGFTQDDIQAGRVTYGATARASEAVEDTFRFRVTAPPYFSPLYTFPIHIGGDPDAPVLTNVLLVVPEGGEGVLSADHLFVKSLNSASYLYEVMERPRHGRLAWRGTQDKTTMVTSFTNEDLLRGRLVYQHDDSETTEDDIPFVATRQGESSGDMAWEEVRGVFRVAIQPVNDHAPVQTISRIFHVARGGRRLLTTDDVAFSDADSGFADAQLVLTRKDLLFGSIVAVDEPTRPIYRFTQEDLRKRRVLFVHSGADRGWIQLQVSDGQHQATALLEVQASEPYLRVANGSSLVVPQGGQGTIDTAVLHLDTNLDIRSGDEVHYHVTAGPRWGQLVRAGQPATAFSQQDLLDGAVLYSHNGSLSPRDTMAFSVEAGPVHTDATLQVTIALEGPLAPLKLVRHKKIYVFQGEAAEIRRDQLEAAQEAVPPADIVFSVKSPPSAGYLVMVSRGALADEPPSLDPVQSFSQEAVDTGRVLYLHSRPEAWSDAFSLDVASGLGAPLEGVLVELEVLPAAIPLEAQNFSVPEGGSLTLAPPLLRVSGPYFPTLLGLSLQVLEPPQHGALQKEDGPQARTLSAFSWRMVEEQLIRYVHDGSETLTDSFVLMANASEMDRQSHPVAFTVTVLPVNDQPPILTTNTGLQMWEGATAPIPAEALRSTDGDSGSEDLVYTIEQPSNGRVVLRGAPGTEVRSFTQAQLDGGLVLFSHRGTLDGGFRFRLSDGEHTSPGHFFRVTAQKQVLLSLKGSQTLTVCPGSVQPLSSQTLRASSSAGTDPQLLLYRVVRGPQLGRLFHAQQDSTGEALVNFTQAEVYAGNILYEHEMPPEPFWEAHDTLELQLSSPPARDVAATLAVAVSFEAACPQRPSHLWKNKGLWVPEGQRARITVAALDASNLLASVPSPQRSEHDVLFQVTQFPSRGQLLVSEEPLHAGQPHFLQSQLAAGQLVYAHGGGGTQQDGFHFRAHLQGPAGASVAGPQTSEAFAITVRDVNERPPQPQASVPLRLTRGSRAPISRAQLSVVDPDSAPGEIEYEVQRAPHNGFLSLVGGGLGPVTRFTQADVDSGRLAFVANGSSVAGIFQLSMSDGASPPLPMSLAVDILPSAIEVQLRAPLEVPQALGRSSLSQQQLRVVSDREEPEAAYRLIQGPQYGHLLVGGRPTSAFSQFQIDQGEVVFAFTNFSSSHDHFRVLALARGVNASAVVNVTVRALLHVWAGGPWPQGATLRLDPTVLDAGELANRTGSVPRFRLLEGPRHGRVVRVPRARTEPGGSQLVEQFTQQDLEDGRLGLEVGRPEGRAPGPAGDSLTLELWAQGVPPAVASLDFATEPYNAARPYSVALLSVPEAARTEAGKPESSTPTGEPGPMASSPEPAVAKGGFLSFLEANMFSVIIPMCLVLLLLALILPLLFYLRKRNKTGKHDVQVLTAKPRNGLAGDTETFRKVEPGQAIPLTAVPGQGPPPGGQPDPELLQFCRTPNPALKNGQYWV

Binder	EC50 of killing (LDH release) of MV-3 tumor cells, human PBMCs, E:T 10:1, 24 hours [1] [nM]	EC50 of killing (LDH release) of MV-3 tumor cells, human PBMCs, E:T 10:1, 24 hours [2] [nM]
hu Fab (MCSP)-Crossfab (CD3) (bispecific antibody) chain 1: EVQLQESGPGLVKPSQSLSLTCSVTGYSITSGYYWNWIRQFPGNKLEWMGYITYDGSNNYNPSLKNRISITRDTSKNQFFLKLNSVTTEDTATYYCADFDYWGQGTTLTVSSASTKGPSVFPLAPSSKSTSGGTAALGCLVKDYFPEPVTVSWNSGALTSGVHTFPAVLQSSGLYSLSSVVTVPSSSLGTQTYICNVNHKPSNTKVDKKVEPKSCDGGGGSGGGGSDIQMTQSPSSLSASVGDRVTITCRASQDIRNYLNWYQQKPGKAPKLLIYYTSRLESGVPSRFSGSGSGTDYTLTISSLQPEDFATYYCQQGNTLPWTFGQGTKVEIKSSASTKGPSVFPLAPSSKSTSGGTAALGCLVKDYFPEPVTVSWNSGALTSGVHTFPAVLQSSGLYSLSSVVTVPSSSLGTQTYICNVNHKPSNTKVDKKVEPKSC light: DIVLTQSPSSLSASLGDRVTISCSASQGIRNYLNWYQQRPDGTVKLLIYYTSSLHSGVPSRFSGSGSGTDYSLTISNLEPEDIATYYCQQYSKLPWTFGGGTKLEIKRTVAAPSVFIFPPSDEQLKSGTASVVCLLNNFYPREAKVQWKVDNALQSGNSQESVTEQDSKDSTYSLSSTLTLSKADYEKHKVYACEVTHQGLSSPVTKSFNRGEC chain 2: EVQLVESGGGLVQPGGSLRLSCAASGYSFTGYTMNWVRQAPGKGLEWVALINPYKGVSTYNQKFKDRFTISVDKSKNTAYLQMNSLRAEDTAVYYCARSGYYGDSDWYFDVWGQGTLVTVSSASVAAPSVFIFPPSDEQLKSGTASVVCLLNNFYPREAKVQWKVDNALQSGNSQESVTEQDSKDSTYSLSSTLTLSKADYEKHKVYACEVTHQGLSSPVTKSFNRGEC	0.0254	0.0254
(scFv)2 (antiMCSP/anti huCD3e) (bispecific antibody) scFv: DIVLTQSPSSLSASLGDRVTISCSASQGIRNYLNWYQQRPDGTVKLLIYYTSSLHSGVPSRFSGSGSGTDYSLTISNLEPEDIATYYCQQYSKLPWTFGGGTKLEIKGGGGSGGGGSGGGGSEVQLQESGPGLVKPSQSLSLTCSVTGYSITSGYYWNWIRQFPGNKLEWMGYITYDGSNNYNPSLKNRISITRDTSKNQFFLKLNSVTTEDTATYYCADFDYWGQGTTLTVSSGGGGSEVQLVESGGGLVQPGGSLRLSCAASGYSFTGYTMNWVRQAPGKGLEWVALINPYKGVSTYNQKFKDRFTISVDKSKNTAYLQMNSLRAEDTAVYYCARSGYYGDSDWYFDVWGQGTLVTVSSVEGGSGGSGGSGGSGGVDDIQMTQSPSSLSASVGDRVTITCRASQDIRNYLNWYQQKPGKAPKLLIYYTSRLESGVPSRFSGSGSGTDYTLTISSLQPEDFATYYCQQGNTLPWTFGQGTKVEIKHHHHHH	0.057	0.057
